Literature values, collected in patent publication US20170290929A1, “GRP78 TARGETED CONJUGATES” (University of Iowa Research Foundation, priority 2014, published 2017).
Ends that are not written are not given here.

Biological target: GRP78 (Homo sapiens, UniProt P11021)
Conditions: cell free binding assays

Chain of GRP78 (P11021 19-654, species assumed): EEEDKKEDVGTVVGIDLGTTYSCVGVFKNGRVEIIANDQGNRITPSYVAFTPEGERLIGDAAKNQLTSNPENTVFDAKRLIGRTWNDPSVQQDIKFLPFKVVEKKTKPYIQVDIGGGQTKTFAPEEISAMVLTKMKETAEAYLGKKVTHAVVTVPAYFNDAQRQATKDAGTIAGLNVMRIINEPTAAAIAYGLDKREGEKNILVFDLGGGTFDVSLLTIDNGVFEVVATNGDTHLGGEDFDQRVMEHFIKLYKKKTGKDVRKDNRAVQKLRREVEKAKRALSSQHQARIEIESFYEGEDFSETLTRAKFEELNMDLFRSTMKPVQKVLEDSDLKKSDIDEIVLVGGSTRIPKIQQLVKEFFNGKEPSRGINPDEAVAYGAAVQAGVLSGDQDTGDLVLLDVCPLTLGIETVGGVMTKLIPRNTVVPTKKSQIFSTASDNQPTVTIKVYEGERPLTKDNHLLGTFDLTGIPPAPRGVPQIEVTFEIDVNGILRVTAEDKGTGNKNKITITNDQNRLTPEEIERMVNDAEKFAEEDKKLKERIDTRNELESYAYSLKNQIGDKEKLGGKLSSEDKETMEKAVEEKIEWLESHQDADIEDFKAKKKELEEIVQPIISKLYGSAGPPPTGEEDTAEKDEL

binding with GRP78: shown to bind with GRP78
Substance: PEP42: 13-mer cyclic peptide, amino acid sequence CTVALPGGYVRKC (SEQ ID NO:1) (also: cyclic)
